Paper PMC8307404, “Crystal Structure-Guided Design of Bisubstrate Inhibitors and Photoluminescent Probes for Protein Kinases of the PIM Family” (Molecules, 2021)
Square brackets hold non-standard residues; d marks the D form. Peptide text beside a SMILES is read from it. * marks the point of attachment. X3 = O=C(CCCCCNCc1nc2c(sc3cc(Br)cnc32)c(=O)[nH]1)*

Assays:
Test in all cases: Kinase profiling (radiometric filter-binding)
Assay type in all cases: biochemical
Aurora B = Aurora B (Homo sapiens, UniProt Q96GD4); conditions: 1 µM inhibitor, read-out: Residual activity, %
How it was run: (§1)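 A 1 µM final dose of each inhibitor was profiled on human protein kinases; ATP was kept at or beneath the KM of every enzyme, and radiometric filter binding measured turnover, expressed as % of the inhibitor-free reaction.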

BRSK2 = target: T1, BRSK2 (Homo sapiens, UniProt Q8IWQ3); conditions: BRSK2, 1 µM inhibitor; read-out: Residual activity, %
T1 sequence (Q8IWQ3 1-736): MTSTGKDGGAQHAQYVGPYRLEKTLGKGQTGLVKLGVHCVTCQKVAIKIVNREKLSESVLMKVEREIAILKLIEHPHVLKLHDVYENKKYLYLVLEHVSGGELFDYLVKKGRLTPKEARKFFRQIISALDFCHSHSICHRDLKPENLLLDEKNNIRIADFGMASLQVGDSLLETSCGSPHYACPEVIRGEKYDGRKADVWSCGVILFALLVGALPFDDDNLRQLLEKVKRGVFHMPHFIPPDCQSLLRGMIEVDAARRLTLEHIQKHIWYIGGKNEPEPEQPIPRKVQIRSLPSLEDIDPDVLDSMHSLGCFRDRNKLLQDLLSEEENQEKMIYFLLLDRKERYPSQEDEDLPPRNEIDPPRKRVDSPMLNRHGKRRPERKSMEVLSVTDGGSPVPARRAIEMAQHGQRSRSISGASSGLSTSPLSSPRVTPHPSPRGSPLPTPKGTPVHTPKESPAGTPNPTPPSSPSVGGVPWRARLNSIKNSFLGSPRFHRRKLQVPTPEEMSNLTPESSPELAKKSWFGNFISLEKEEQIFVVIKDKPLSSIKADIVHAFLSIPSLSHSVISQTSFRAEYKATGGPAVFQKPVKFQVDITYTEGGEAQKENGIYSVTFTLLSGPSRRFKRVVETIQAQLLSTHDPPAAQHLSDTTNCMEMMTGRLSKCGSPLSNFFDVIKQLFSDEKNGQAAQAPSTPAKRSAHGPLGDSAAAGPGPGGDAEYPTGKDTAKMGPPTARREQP
How it was run: as §1

DDR2 = target: T2, DDR2 (Homo sapiens, UniProt Q16832); conditions: DDR2, 1 µM inhibitor; read-out: Residual activity, %
T2 sequence (Q16832 22-855): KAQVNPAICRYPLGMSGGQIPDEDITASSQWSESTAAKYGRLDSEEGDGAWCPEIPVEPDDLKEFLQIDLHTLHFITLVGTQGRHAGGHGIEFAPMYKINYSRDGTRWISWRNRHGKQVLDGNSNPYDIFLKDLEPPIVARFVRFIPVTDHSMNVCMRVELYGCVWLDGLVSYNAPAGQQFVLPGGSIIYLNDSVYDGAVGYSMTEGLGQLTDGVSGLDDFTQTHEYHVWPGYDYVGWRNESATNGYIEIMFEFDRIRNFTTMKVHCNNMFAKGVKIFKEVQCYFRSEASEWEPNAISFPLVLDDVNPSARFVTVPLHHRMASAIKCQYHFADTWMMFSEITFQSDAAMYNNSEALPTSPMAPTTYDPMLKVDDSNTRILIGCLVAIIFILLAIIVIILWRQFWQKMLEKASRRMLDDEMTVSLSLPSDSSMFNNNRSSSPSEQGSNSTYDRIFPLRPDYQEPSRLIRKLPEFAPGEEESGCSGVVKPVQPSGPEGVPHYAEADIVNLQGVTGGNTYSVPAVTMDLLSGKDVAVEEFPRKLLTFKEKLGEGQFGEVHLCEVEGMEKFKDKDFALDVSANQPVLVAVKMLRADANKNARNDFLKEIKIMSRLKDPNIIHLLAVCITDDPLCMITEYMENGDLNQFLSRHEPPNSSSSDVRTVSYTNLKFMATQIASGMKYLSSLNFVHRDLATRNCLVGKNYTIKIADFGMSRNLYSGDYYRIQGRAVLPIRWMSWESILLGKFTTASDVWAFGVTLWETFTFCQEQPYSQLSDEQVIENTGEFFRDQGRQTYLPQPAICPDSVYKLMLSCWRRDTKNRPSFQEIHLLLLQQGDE
How it was run: as §1

DYRK2 = target: T3, DYRK2 (Homo sapiens, UniProt Q92630); conditions: DYRK2, 1 µM inhibitor; read-out: Residual activity, %
T3 sequence (Q92630 1-601): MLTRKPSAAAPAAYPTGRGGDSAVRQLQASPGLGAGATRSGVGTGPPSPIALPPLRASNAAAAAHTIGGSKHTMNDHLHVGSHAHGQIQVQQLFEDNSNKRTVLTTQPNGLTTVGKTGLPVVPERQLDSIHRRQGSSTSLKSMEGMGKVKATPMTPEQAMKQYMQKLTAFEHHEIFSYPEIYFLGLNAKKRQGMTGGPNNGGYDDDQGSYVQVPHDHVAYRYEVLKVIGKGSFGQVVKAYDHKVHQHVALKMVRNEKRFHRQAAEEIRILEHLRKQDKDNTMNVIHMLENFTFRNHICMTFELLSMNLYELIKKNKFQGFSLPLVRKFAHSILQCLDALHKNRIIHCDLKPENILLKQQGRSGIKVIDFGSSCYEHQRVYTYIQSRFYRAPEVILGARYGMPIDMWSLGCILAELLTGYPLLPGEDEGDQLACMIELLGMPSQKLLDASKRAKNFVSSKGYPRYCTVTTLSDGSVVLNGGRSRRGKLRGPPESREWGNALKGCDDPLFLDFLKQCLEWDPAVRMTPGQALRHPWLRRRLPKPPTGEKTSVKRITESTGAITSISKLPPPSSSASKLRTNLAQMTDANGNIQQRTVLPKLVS
How it was run: as §1

MAPKAP-K2 = MAPKAP-K2 (Homo sapiens, UniProt P49137); conditions: MAPKAP-K2, 1 µM inhibitor; read-out: Residual activity, %
How it was run: as §1

PIM2 = PIM2 (Homo sapiens, UniProt Q9P1W9); conditions: PIM2, 1 µM inhibitor; read-out: Residual activity, %
How it was run: as §1

SIK2 = SIK2 (Homo sapiens, UniProt Q9H0K1); conditions: SIK2, 1 µM inhibitor; read-out: Residual activity, %
How it was run: as §1

SmMLCK = SmMLCK (Homo sapiens, UniProt Q15746); conditions: 1 µM inhibitor, read-out: Residual activity, %
How it was run: as §1

TTBK2 = TTBK2 (Homo sapiens, UniProt Q6IQ55); conditions: TTBK2, 1 µM inhibitor; read-out: Residual activity, %
How it was run: as §1

SmMLCK, sequence (Q15746 923-1914): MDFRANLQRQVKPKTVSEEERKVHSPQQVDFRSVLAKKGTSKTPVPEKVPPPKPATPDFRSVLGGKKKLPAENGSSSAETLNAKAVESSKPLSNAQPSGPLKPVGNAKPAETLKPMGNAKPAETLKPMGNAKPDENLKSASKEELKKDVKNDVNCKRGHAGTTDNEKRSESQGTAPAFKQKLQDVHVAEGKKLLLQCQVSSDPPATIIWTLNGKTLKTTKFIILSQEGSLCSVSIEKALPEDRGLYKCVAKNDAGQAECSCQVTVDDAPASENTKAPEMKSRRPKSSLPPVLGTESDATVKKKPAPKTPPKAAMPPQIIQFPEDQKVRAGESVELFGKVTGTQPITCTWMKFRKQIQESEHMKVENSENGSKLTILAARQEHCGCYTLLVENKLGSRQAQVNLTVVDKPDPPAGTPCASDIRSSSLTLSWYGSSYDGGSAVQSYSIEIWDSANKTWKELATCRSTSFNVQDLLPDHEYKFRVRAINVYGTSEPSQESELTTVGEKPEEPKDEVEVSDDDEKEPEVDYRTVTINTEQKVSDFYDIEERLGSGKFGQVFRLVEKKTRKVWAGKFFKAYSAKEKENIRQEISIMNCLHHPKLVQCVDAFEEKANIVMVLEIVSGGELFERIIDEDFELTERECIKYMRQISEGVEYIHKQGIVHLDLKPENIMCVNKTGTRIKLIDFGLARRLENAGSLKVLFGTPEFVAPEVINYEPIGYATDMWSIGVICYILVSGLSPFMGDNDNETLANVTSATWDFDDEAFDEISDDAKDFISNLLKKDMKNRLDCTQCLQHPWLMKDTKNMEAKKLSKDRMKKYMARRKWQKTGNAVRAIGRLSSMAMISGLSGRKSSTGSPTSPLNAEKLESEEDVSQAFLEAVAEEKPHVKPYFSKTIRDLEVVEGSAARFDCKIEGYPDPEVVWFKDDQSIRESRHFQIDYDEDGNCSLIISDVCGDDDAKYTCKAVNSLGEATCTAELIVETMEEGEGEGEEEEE
SIK2, sequence (Q9H0K1 whole entry): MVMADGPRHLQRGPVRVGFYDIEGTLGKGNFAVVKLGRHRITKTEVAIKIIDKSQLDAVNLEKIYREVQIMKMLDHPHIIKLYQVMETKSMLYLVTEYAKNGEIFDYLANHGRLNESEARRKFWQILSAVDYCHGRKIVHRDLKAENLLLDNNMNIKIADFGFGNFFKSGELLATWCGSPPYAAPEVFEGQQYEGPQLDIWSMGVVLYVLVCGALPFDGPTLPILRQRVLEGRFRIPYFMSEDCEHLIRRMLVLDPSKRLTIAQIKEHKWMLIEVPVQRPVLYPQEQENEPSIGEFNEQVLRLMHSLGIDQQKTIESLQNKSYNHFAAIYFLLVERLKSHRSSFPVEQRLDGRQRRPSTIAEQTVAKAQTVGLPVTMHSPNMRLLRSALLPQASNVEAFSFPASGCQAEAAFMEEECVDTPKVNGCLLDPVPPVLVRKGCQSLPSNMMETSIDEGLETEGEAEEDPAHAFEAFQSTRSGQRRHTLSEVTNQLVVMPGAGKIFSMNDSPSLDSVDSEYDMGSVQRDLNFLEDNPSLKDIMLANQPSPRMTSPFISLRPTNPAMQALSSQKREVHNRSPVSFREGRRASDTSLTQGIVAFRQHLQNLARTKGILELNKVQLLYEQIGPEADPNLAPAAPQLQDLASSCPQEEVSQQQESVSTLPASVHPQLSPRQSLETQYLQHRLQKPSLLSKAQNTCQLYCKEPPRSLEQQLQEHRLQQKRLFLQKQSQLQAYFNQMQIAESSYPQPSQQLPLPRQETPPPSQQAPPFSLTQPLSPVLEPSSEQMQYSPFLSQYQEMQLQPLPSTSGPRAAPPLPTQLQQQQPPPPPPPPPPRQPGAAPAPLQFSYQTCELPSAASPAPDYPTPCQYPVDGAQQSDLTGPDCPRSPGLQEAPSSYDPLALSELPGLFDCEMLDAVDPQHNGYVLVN
TTBK2, sequence (Q6IQ55 whole entry): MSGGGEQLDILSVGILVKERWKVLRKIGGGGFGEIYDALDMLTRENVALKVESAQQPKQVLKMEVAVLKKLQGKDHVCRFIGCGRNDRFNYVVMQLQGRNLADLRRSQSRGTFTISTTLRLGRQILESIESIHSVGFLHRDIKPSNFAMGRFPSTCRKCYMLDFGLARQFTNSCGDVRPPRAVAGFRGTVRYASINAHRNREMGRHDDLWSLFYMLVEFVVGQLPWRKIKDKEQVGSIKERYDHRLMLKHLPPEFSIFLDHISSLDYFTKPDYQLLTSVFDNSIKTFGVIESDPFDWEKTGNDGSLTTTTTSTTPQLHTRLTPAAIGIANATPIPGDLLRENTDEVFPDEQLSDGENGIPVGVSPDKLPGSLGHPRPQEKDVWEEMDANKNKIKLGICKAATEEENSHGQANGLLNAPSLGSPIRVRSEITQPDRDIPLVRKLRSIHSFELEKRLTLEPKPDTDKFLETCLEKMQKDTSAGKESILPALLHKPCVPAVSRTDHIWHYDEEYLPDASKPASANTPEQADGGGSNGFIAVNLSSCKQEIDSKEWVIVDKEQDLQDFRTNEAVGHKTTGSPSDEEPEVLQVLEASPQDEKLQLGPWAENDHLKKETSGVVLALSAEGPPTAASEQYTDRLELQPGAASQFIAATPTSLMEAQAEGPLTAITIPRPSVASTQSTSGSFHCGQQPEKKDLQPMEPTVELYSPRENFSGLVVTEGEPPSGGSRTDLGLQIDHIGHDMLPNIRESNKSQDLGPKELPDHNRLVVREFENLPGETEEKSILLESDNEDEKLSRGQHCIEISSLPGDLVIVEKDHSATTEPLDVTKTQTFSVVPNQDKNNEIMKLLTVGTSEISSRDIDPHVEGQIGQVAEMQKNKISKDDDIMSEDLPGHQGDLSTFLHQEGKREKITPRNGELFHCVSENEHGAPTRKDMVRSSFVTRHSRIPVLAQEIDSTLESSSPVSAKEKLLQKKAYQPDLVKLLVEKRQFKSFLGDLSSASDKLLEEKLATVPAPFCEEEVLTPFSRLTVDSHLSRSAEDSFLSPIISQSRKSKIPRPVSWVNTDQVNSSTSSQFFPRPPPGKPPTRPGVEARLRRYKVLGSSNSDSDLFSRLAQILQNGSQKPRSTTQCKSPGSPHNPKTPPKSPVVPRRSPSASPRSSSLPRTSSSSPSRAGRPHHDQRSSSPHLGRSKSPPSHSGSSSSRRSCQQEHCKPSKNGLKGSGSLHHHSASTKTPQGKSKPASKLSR
Aurora B, sequence (Q96GD4 whole entry): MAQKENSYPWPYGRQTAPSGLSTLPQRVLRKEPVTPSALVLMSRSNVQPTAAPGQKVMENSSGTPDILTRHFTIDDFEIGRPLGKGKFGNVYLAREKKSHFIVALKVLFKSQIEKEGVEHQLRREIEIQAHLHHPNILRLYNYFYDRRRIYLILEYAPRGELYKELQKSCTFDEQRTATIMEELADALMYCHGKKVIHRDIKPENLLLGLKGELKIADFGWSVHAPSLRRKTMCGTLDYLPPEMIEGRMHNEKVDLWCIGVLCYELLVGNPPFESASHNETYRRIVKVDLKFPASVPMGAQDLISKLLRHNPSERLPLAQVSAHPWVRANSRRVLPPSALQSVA
PIM2, sequence (Q9P1W9 whole entry): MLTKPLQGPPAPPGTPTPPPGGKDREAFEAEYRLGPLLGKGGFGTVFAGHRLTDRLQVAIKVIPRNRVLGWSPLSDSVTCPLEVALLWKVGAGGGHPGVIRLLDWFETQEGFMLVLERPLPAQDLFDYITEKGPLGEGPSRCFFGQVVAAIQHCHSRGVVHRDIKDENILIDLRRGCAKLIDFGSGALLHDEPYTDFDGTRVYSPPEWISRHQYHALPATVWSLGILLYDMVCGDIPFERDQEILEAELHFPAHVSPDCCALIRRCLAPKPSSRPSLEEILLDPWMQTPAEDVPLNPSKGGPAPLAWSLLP
MAPKAP-K2, sequence (P49137 whole entry): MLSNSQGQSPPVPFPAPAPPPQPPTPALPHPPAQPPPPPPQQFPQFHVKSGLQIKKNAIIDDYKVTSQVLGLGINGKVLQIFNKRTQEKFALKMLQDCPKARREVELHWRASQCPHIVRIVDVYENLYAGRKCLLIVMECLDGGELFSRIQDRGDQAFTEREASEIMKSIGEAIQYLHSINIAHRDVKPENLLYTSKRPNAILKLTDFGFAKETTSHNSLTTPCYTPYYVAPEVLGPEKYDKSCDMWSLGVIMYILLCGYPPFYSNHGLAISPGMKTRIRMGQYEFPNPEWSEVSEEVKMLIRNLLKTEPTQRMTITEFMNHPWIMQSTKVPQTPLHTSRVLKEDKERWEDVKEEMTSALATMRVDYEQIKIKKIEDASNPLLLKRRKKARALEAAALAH

SMILES | remaining activity at 1 µM (Aurora B) [%] | remaining activity at 1 µM (BRSK2) [%] | remaining activity at 1 µM (DDR2) [%] | remaining activity at 1 µM (DYRK2) [%] | remaining activity at 1 µM (MAPKAP-K2) [%] | remaining activity at 1 µM (PIM2) [%] | remaining activity at 1 µM (SIK2) [%] | remaining activity at 1 µM (SmMLCK) [%] | remaining activity at 1 µM (TTBK2) [%]
N=C(N)NCCC[C@@H](NC(=O)CCCCCNC(=O)Cn1cnc2c(I)c(I)c(I)c(I)c21)C(=O)N[C@H](CCCNC(=N)N)C(=O)N[C@H](CCCNC(=N)N)C(=O)N[C@H](CCCNC(=N)N)C(=O)N[C@H](CCCNC(=N)N)C(=O)N[C@H](CCCNC(=N)N)C(=O)N[C@H](CCCCN)C(N)=O [ARC-3125, TIBI-CH2-C(=O)-Ahx-(D-Arg)6-D-Lys-NH2] | 100 ± 4 | 107 ± 23 | 84 ± 13 | 54 ± 6 | 51 ± 5 | 0 | 34 ± 4 | 66 ± 1 | 101 ± 24
N=C(N)NCCC[C@@H](NC(=O)CNC(=O)[C@@H](CCCNC(=N)N)NC(=O)[C@@H](CCCNC(=N)N)NC(=O)CCCCCCCNCc1nc2c(sc3cc(Br)cnc32)c(=O)[nH]1)C(=O)N[C@H](CCCCN)C(N)=O [Compound 1, BPTP-Aoc-(D-Arg)2-Gly-D-Arg-D-Lys-NH2] | 102 ± 19 | 124 ± 12 | 104 ± 22 | 85 ± 17 | 107 ± 10 | 72 | 110 ± 5 | 98 ± 5 | 109 ± 6
N=C(N)NCCC[C@@H](NC(=O)CCCCCNCc1nc2c(sc3cc(Br)cnc32)c(=O)[nH]1)C(=O)N[C@H](CCCNC(=N)N)C(=O)N[C@H](CCCNC(=N)N)C(=O)N[C@H](CCCNC(=N)N)C(=O)N[C@H](CCCNC(=N)N)C(=O)N[C@H](CCCNC(=N)N)C(=O)N[C@H](CCCCN)C(N)=O [ARC-3126, BPTP-Ahx-(D-Arg)6-D-Lys-NH2] (X3-[dR][dR][dR][dR][dR][dR][dK]-NH2) | 114 ± 20 | 100 ± 9 | 93 ± 3 | 88 ± 6 |  | 10 | 109 ± 6 | 116 ± 39 | 77 ± 2
N=C(N)NCCC[C@@H](NC(=O)CNC(=O)[C@@H](CCCNC(=N)N)NC(=O)[C@@H](CCCNC(=N)N)NC(=O)Cn1cc(CNCc2nc3c(sc4ccc(Br)cc43)c(=O)[nH]2)nn1)C(=O)N[C@H](CCCCN)C(N)=O [Compound 3, BBTP-Amt-(D-Arg)2-Gly-D-Arg-D-Lys-NH2] | 111 ± 1 | 96 ± 8 | 112 ± 6 | 83 ± 22 | 114 ± 4 | 15 ± 1 | 68 ± 3 | 94 | 105 ± 15
N=C(N)NCCC[C@@H](NC(=O)CNC(=O)[C@@H](CCCNC(=N)N)NC(=O)[C@@H](CCCNC(=N)N)NC(=O)CCCCCCCNCc1nc2c(sc3ccc(Br)cc32)c(=O)[nH]1)C(=O)N[C@H](CCCCN)C(N)=O [Compound 2, BBTP-Aoc-(D-Arg)2-Gly-D-Arg-D-Lys-NH2] | 98 ± 2 | 108 ± 12 | 107 ± 7 | 64 ± 5 | 107 ± 2 | 7 ± 1 | 107 ± 10 | 98 ± 9 | 125 ± 12
